Laboratory results from US20230070786A1 (SPIBER TECHNOLOGIES, published 2023).

Biological target: the molecule itself
Assay: size exclusion chromatography, self-association
Description: The inventors designed a minispidroin composed of NT from E. australis MaSp1 and CT from A. ventricosus MiSp bracketing a short repetitive region from E. australis. The chimeric NT2RepCT protein was produced at unprecedented high levels in shake flask E. coli cultures and the yield after purification was around 125 mg protein/L cell culture. Nearly all protein was soluble after expression and lysis, and bound efficiently to the Ni-NTA column (FIG. 2A). The eluate contained >95% pure NT2RepCT and the size of the protein on the SDS PAGE gel corresponded well to the expected molecular mass (33 kDa) (FIG. 2A). Size-exclusion chromatography indicated a mass of 100 kDa (FIG. 6), in good agreement with a dimer (due to the constitutive dimeric nature of CT) and a non-globular structure of the repetitive part.
A Superdex 200 HR column (Amersham Biosciences) was used to run 200 μl of purifed protein sample in TBS running buffer (20 mM Iris, 150 mM NaCl and 1 mM EDTA, pH 8.0). The flow rate used was 0.5 ml/min. Molecular mass standards Ribonuclease A (13.7 kDa), Carbonic anhydrase (29 kDa), Ovalbumin (43 kDa), Conalbumin (75 kDa), Aldolase (158 kDa) and Ferritin (440 kDa) were used for calibration.

B1: NT2RepCT (other)
chain: MGHHHHHHMSHTTPWTNPGLAENFMNSFMQGLSSMPGFTASQLDDMSTIAQSMVQSIQSLAAQGRTSPNKLQALNMAFASSMAEIAASEEGGGSLSTKTSSIASAMSNAFLQTTGVVNQPFINEITQLVSMFAQAGMNDVSAGNSGRGQGGYGQGSGGNAAAAAAAAAAAAAAAGQGGQGGYGRQSQGAGSAAAAAAAAAAAAAAGSGQGGYGGQGQGGYGQSGNSVTSGGYGYGTSAAAGAGVAAGSYAGAVNRLSSAEAASRVSSNIAAIASGGASALPSVISNIYSGVVASGVSSNEALIQALLELLSALVHVLSSASIGNVSSVGVDSTLNVVQDSVGQYVG
notes: Engineered chimeric spidroin made in E. coli and tested with its His tag; also called chimeric minispidroin NT2RepCT; chimeric NT2RepCT protein
binding result: binds
